# Source: patent US20220010003A1 (Boehringer Ingelheim, published 2022)
# B1: NB0828 (antibody, V domains shown)
# VH: QVQLVQSGAEVKKPGASVKVSCKASGYTFTSYGISWVRQAPGQGLEWMGWISAYNGNTNYAQKLQGRVTMTTDTSTSTAYMELRSLRSDDTAVYYCARDMLVVPFDYWGQGTLVTVSS
# VL: QSVLTQSSSASGTPGQTVTVSCSGSSSDIGSNRVNWYQQLPGTAPKLLIYSNDQRPSGVPDRFSGSKSGTSASLAISGLQSADEADYYCAAWDDSLSTYVFGSGTKVTVL
# How the values were obtained:
# [1] = molecular target: T1, recombinant mouse periostin (mouse, UniProt Q62009-2 24-811, limits assumed); assay: BLI (Octet Red), NB0828 captured on anti-human Fc (AHC) biosensors, periostin titrated from 100 nM
# T1 construct: also called MoPOSTN
# T1 sequence (looked up): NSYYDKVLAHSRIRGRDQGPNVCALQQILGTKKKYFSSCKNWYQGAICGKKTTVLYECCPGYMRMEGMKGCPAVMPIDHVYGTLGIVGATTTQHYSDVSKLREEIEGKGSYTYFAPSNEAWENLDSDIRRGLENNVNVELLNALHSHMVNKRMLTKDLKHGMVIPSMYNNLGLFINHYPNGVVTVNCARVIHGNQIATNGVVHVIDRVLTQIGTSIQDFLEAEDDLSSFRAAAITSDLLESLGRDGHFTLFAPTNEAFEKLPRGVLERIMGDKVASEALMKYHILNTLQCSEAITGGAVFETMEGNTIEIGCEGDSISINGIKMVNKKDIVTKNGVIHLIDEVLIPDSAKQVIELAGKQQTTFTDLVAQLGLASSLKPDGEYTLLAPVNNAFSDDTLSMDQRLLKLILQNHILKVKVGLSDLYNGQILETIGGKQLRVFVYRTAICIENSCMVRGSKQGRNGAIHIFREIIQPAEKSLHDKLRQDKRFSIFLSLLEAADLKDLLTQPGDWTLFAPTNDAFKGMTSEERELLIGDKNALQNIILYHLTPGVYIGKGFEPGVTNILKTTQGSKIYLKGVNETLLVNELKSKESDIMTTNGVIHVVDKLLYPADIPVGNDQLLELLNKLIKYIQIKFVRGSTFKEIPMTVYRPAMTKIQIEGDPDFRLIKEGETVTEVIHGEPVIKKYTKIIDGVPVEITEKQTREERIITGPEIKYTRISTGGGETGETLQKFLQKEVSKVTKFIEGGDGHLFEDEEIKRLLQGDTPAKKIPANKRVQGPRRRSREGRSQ
# Experimental: (§1) NB0828's binding affinity was determined across human, mouse, rat, and cyno species. NB0828 affinities were determined using the octet red system. Briefly, anti-human Fc (AHC) biosensors were used to capture NB0828, followed by association of titrating amounts of either recombinant human, mouse, rat, or cyno periostin (100 nM→0 nM; 1:2 dilutions). Recombinant human, mouse, and rat periostin was purchased commercially from R&D systems, whereas cyno periostin was made internally.
# [2] = molecular target: T2, recombinant cyno periostin (cyno, UniProt F6ZVK0 47-861 (rhesus entry)); assay: as above
# T2 construct: also called CynoPOSTN
# T2 sequence: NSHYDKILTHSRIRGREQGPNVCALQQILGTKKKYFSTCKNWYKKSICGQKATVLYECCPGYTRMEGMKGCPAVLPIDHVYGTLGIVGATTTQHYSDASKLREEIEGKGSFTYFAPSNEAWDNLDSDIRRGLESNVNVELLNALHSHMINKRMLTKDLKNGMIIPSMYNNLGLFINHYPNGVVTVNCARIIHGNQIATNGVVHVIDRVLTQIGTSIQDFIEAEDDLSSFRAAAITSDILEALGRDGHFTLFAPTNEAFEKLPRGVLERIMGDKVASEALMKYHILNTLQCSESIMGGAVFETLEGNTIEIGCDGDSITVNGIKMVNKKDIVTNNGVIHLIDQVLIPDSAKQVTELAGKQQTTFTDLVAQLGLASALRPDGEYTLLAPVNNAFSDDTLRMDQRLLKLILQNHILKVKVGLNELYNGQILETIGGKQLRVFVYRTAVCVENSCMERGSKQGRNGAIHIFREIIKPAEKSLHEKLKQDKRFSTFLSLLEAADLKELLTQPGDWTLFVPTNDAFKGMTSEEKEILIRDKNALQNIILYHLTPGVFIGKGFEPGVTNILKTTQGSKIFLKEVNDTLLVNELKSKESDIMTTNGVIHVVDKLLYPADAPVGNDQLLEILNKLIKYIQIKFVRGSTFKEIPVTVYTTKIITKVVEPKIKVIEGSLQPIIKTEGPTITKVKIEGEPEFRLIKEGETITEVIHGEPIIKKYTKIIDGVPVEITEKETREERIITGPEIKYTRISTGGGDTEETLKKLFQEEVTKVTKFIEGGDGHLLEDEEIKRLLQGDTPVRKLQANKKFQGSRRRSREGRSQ
# Experimental: as §1
binder,measurement,setting,value
B1,Kd,[1],0.114 nM
same,koff,[1],7.64e-05 s⁻¹
same,kon,[1],670000 M⁻¹ s⁻¹
same,Kd,[2],0.265 nM
same,koff,[2],0.000211 s⁻¹
same,kon,[2],794000 M⁻¹ s⁻¹
